Measurements as given in patent US20260209386A1 (MYTHIC THERAPEUTICS, published 2026).
Numbering of substitutions follows the chain as printed.

B1: MYT10935 (antibody, V domains shown)
VH: EVQLVESGGGLVQPGGSLRLSCTASGFSLSNYVMNWVRQAPGKGLEWVGIIDSSGSTYYASWAKGRFTISRDTSKNTVYLQMNSLRAEDTAVYFCARGLYLWGQGTLVTVSS
VL: EIVMTQSPSTLSASVGDRVIITCQSSQSVYNNNLLAWYQQKPGKAPKLLIYYTSHLASGVPSRFSGSGSGAEFTLTISSLQPDDFATYYCQGGYNGNIYAFGQGTKLTVL
notes: MYT9345 variant, His at VL pos 55 (L2 04)
B2: MYT10943 (antibody, V domains shown)
VH: B1 VH
VL: B1 VL with H55N, N95H
notes: MYT9345 variant, substitution at VL pos 95 (L3 05), no Ala mark
B3: MYT10939 (antibody, V domains shown)
VH: B1 VH
VL: B1 VL with H55N, Q91H
notes: MYT9345 variant, His at VL pos 91 (L3 01)
B4: MYT10946 (antibody, V domains shown)
VH: B1 VH
VL: B1 VL with H55N, I98H
notes: MYT9345 variant, His at VL pos 98 (L3 08)
B5: MYT10949 (antibody, V domains shown)
VH: B1 VH
VL: B1 VL with H55N, T108E, V109I, L110K
notes: MYT9345 LC variant; substitution position printed as n/a
B6: MYT10942 (antibody, V domains shown)
VH: B1 VH
VL: B1 VL with H55N, Y94H
notes: MYT9345 variant, His at VL pos 94 (L3 04)
B7: MYT10937 (antibody, V domains shown)
VH: B1 VH
VL: B1 VL with H55N, A57H
notes: MYT9345 variant, His at VL pos 57 (L2 06)
B8: MYT10950 (antibody, V domains shown)
VH: B1 VH
VL: B1 VL with H55N, N95A
notes: MYT9345 variant, Ala at VL pos 95 (L3 05)
B9: MYT10944 (antibody, V domains shown)
VH: B1 VH
VL: B1 VL with H55N, G96H
notes: MYT9345 variant, His at VL pos 96 (L3 06)
B10: MYT10936 (antibody, V domains shown)
VH: B1 VH
VL: B1 VL with H55N, L56H
notes: MYT9345 variant, His at VL pos 56 (L2 05)
B11: MYT11182 (antibody, V domains shown)
VH: EVQLVESGGGLVQPGGSLRLSCTASGIHLSSYVMGWVRQAPGKGLEWVGYIYGGGGTYYATWARGRFTISRDTSKNTVYLQMNSLRAEDTAVYFCARAAADFYFNLWGQGTLVTVSS
VL: EIVMTQSPSTLSASVGDRVIITCQASQSISSYLAWYQQKPGKAPKLLIYDISDLASGVPSRFSGSGSGAEFTLTISSLQPDDFATYYCQSYYWISNSGAAFGQGTKLTVL
notes: HC variant of MYT9460, sub at HCV pos 28 (H1 03)
B12: MYT11197 (antibody, V domains shown)
VH: B11 VH with H28D, T57H
VL: B11 VL
notes: HC variant of MYT9460, sub at HCV pos 57 (H2 08)
B13: MYT11244 (antibody, V domains shown)
VH: B11 VH with H28D
VL: B11 VL with S95H
notes: LC variant of MYT9460, sub at LCV pos 95 (L3 07)
B14: MYT11192 (antibody, V domains shown)
VH: B11 VH with H28D, Y52H
VL: B11 VL
notes: HC variant of MYT9460, sub at HCV pos 52 (H2 03)
B15: MYT11240 (antibody, V domains shown)
VH: B11 VH with H28D
VL: B11 VL with Y91H
notes: LC variant of MYT9460, sub at LCV pos 91 (L3 03)
B16: MYT11224 (antibody, V domains shown)
VH: B11 VH with H28D
VL: B11 VL with S28H
notes: LC variant of MYT9460, sub at LCV pos 28 (L1 05)
B17: MYT11221 (antibody, V domains shown)
VH: B11 VH with H28D
VL: B11 VL with A25H
notes: LC variant of MYT9460, sub at LCV pos 25 (L1 02)
B18: MYT11213 (antibody, V domains shown)
VH: B11 VH with H28D, Y103H
VL: B11 VL
notes: HC variant of MYT9460, sub at HCV pos 103 (H3 08)
B19: MYT11246 (antibody, V domains shown)
VH: B11 VH with H28D
VL: B11 VL with S97H
notes: LC variant of MYT9460, sub at LCV pos 97 (L3 09)
B20: MYT11229 (antibody, V domains shown)
VH: B11 VH with H28D
VL: B11 VL with L33H
notes: LC variant of MYT9460, sub at LCV pos 33 (L1 10)
B21: MYT11238 (antibody, V domains shown)
VH: B11 VH with H28D
VL: B11 VL with Q89H
notes: LC variant of MYT9460, sub at LCV pos 89 (L3 01)
B22: MYT11210 (antibody, V domains shown)
VH: B11 VH with H28D, A100H
VL: B11 VL
notes: HC variant of MYT9460, sub at HCV pos 100 (H3 05)
B23: MYT11193 (antibody, V domains shown)
VH: B11 VH with H28D, G53H
VL: B11 VL
notes: HC variant of MYT9460, sub at HCV pos 53 (H2 04)
B24: MYT11184 (antibody, V domains shown)
VH: B11 VH with H28D, S30H
VL: B11 VL
notes: HC variant of MYT9460, sub at HCV pos 30 (H1 05)
B25: MYT11236 (antibody, V domains shown)
VH: B11 VH with H28D
VL: B11 VL with A55H
notes: LC variant of MYT9460, sub at LCV pos 55 (L2 06)
B26: MYT11196 (antibody, V domains shown)
VH: B11 VH with H28D, G56H
VL: B11 VL
notes: HC variant of MYT9460, sub at HCV pos 56 (H2 07)
B27: MYT11194 (antibody, V domains shown)
VH: B11 VH with H28D, G54H
VL: B11 VL
notes: HC variant of MYT9460, sub at HCV pos 54 (H2 05)
B28: MYT11225 (antibody, V domains shown)
VH: B11 VH with H28D
VL: B11 VL with I29H
notes: LC variant of MYT9460, sub at LCV pos 29 (L1 06)
B29: MYT11222 (antibody, V domains shown)
VH: B11 VH with H28D
VL: B11 VL with S26H
notes: LC variant of MYT9460, sub at LCV pos 26 (L1 03)
B30: MYT11180 (antibody, V domains shown)
VH: B11 VH with G26H, H28D
VL: B11 VL
notes: HC variant of MYT9460, sub at HCV pos 26 (H1 01)
B31: MYT11245 (antibody, V domains shown)
VH: B11 VH with H28D
VL: B11 VL with N96H
notes: LC variant of MYT9460, sub at LCV pos 96 (L3 08)
B32: MYT11195 (antibody, V domains shown)
VH: B11 VH with H28D, G55H
VL: B11 VL
notes: HC variant of MYT9460, sub at HCV pos 55 (H2 06)

Each binder was assayed against T1, Human PTK7 Protein, His Tag, Acro Biosystems (human, UniProt Q13308 31-704) (assay: BLI (Octet), antibody on anti-human Fc sensor, 50 nM PTK7 at pH 7.4, dissociation at pH 7.4 or 5.4; 1 = pH dependent binding relative to parent).
T1 construct: Bought recombinant protein; also called CCK4; not shown: His tag
T1 sequence: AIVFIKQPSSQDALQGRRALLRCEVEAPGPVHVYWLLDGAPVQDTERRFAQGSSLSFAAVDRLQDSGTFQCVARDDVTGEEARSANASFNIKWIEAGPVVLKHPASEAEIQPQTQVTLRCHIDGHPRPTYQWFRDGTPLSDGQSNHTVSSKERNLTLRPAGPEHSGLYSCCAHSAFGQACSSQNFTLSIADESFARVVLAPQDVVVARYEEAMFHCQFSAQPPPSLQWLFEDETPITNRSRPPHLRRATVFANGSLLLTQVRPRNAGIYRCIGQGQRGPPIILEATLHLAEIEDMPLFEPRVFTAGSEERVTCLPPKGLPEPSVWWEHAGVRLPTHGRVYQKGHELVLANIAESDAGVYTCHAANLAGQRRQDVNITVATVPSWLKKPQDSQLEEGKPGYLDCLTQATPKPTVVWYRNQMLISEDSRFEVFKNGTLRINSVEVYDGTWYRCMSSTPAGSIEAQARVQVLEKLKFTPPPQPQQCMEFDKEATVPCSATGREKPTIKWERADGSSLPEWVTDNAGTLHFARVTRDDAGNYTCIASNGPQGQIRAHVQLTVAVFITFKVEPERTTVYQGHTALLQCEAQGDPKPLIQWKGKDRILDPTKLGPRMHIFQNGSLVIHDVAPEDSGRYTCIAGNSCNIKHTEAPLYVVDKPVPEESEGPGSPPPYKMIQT
B1: binds. B2: binds. B3: binds. B4: binds. B5: binds. B6: binds. B7: binds. B8: binds. B9: binds. B10: binds.

Each binder was assayed against T2, Human PTK7 Protein, His Tag, Acro Biosystems (human, UniProt Q13308 31-704) (assay: BLI (Octet), antibody on anti-human Fc sensor, 50 nM PTK7, dissociation at pH 7.4 or 5.4; 1 = pH dependent binding relative to parent).
T2 construct: Bought protein; also called CCK4; not shown: His tag
T2 sequence: T1 sequence
B11: binds. B12: binds. B13: binds. B14: binds. B15: binds. B16: binds. B17: binds. B18: binds. B19: binds. B20: binds. B21: binds. B22: binds. B23: binds. B24: binds. B25: binds. B26: binds. B27: binds. B28: binds. B29: binds. B30: binds. B31: binds. B32: binds.
